Literature values as cited in PMC7462287.

Target: Protective antigen heptamer (Bacillus anthracis) (UniProt P13423)
Assay: SPR

Sequence of Edema factor (P40136 34-800): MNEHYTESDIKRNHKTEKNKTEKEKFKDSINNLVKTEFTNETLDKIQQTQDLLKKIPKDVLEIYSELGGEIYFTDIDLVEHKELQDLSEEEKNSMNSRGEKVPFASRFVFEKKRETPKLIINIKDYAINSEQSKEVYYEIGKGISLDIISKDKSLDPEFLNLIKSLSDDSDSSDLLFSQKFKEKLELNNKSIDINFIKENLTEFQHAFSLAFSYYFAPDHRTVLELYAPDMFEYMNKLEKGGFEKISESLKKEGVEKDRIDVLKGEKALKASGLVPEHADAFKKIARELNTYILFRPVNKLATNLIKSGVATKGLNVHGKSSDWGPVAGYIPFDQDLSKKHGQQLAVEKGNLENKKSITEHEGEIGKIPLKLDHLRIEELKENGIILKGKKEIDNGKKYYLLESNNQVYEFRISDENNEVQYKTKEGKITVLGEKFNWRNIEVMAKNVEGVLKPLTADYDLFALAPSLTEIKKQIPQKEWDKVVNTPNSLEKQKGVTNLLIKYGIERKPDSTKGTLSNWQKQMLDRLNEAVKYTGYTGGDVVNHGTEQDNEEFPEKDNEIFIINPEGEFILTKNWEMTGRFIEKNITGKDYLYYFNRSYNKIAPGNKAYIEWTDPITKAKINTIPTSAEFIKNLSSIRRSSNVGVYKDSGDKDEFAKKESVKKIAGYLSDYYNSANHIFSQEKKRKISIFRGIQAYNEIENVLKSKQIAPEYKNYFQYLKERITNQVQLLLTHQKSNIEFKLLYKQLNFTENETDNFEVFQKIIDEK
Sequence of Protective antigen heptamer (Bacillus anthracis) (P13423 197-764): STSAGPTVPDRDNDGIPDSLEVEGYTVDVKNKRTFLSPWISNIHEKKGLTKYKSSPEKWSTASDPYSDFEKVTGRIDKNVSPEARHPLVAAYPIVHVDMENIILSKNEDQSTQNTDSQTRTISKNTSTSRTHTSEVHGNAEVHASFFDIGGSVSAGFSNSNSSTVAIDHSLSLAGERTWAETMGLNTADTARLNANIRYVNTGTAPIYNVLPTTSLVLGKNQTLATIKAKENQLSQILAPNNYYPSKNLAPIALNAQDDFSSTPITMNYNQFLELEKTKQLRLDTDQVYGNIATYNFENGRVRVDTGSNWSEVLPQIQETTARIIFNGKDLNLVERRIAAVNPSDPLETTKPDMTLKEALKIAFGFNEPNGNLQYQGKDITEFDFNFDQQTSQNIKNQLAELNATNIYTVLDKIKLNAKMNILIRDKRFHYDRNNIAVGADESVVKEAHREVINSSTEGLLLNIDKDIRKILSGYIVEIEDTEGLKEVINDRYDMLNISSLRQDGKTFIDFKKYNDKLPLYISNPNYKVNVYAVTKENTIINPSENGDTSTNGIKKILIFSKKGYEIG

Substance: Edema factor (from UniProt P40136)
- Kd: 1.5 nM
